Test results published in patent publication US20110318377.

T1: Tat ARM peptide (amino acids 45-58) K50, 51AA
T1 chain: ISYGRAARRQRRRP

T2: unmodified Tat ARM peptide (amino acids 45-58)
T2 chain: ISYGRKKRRQRRRP

T3: Tat ARM peptide (amino acids 45-58) K50A
T3 chain: ISYGRAKRRQRRRP

T4: Tat ARM peptide carrying an acetyl group at position 50
T4 chain: ISYGRKKRRQRRRP

T5: Tat ARM peptide (amino acids 45-58) K51A
T5 chain: ISYGRKARRQRRRP

T6: Tat ARM peptide (amino acids 45-58) monomethylated at K51
T6 chain: ISYGRKKRRQRRRP


Legend:
[1] = target: T1, Tat ARM peptide (amino acids 45-58) …
[2] = target: T2, unmodified Tat ARM peptide (amino acids …)
[3] = target: T3, Tat ARM peptide (amino acids 45-58) K50A
[4] = target: T4, Tat ARM peptide carrying an acetyl …
[5] = target: histones purified from calf thymus
[6] = target: full-length synthetic Tat protein (72 amino acids), unmodified
[7] = target: T5, Tat ARM peptide (amino acids 45-58) K51A
[8] = target: T6, Tat ARM peptide (amino acids 45-58) …

| Protein | in vitro methylation with radiolabeled SAM, autoradiography (recombinant GST-IκBα) | in vitro methylation with radiolabeled SAM [1] | MALDI-TOF mass shift after methylation reaction [2] | radioactive in vitro methylation of short Tat peptides [2] | in vitro methylation with radiolabeled SAM; MALDI-TOF [3] | in vitro methylation with radiolabeled SAM; MALDI-TOF [4] | in vitro methylation with radiolabeled SAM, autoradiography [5] | in vitro methylation with radiolabeled SAM, autoradiography [6] | in vitro methylation with radiolabeled SAM; MALDI-TOF [7] | in vitro acetylation with 14C-AcCoA, autoradiography [2] | in vitro acetylation with 14C-AcCoA, autoradiography [8] |
| --- | --- | --- | --- | --- | --- | --- | --- | --- | --- | --- | --- |
| recombinant Set9 (Upstate) (protein) MDSDDEMVEEAVEGHLDDDGLPHGFCTVTYSSTDRFEGNFVHGEKNGRGKFFFFDGSTLEGYYVDDALQGQGVYTYEDGGVLQGTYVDGELNGPAQEYDTDGRLIFKGQYKDNIRHGVCWIYYPDGGSLVGEVNEDGEMTGEKIAYVYPDERTALYGKFIDGEMIEGKLATLMSTEEGRPHFELMPGNSVYHFDKSTSSCISTNALLPDPYESERVYVAESLISSAGEGLFSKVAVGPNTVMSFYNGVRITHQEVDSRDWALNGNTLSLDEETVIDVPEPYNHVSKYCASLGHKANHSFTPNCIYDMFVHPRFGPIKCIRTLRAVEADEELTVAYGYDHSPPGKSGPEAPEWYQVELKAFQATQQK | methylation by Set9 was not observed with another recombinant protein, GST-IκBα | Methylation by Set9 was abrogated when K51 or both lysines were mutated | a shift of 14 Da was detected in the methylated ARM peptide, corresponding to the addition of a single methyl group | Methylation was observed with one peptide (45-58 amino acids) corresponding to the arginine-rich motif (ARM) of Tat | mutation of K50 alone had no effect | No methylation signal was observed | Set9 also methylated purified histones, predominantly histone H3, a known substrate of Set9 | The Tat protein was methylated in response to increasing amounts of Set9 enzyme | Methylation by Set9 was abrogated when K51 or both lysines were mutated |  |  |
| recombinant GST-p300 HAT (protein) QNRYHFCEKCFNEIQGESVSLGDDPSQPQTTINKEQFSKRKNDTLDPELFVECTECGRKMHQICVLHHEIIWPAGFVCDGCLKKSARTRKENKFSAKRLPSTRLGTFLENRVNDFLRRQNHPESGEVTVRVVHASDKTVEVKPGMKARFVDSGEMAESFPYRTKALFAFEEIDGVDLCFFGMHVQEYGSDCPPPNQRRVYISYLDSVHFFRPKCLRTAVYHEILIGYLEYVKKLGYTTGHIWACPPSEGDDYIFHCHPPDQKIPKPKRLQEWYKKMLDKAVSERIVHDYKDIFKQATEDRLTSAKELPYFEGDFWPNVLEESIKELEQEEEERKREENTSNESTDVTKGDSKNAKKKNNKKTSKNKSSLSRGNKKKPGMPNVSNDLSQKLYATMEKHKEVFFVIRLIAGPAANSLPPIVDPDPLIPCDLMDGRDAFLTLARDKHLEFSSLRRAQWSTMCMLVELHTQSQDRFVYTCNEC |  |  |  |  |  |  |  |  |  | Acetylation by p300 occurred regardless of the methylation status of K51 | Acetylation by p300 occurred regardless of the methylation status of K51 |
